In publication PMC8038987, “An unusual thioredoxin system in the facultative parasite Acanthamoeba castellanii” (Cellular and Molecular Life Sciences: CMLS, 2021):

Tests used:
Assay type in all cases: biochemical, Acanthamoeba castellanii
[1] = substrate: C[S+]([O-])CCC(N)C(=O)O; test: coupled NADPH oxidation via TrxR-S and Trx-1, A340; conditions: 610 nM MsrA, 1.9 µM Trx-1, Ac TrxR-S, 0.2 mM NADPH
From the text: coupled NADPH oxidation via TrxR-S and Trx-1, A340 on MsrA

[2] = substrate: NC(=O)C1=CN([C@@H]2O[C@H](COP(=O)(O)OP(=O)(O)OC[C@H]3O[C@@H](n4cnc5c(N)ncnc54)[C@H](OP(=O)(O)O)[C@@H]3O)[C@@H](O)[C@H]2O)C=CC1; test: GSH-dependent DTNB reduction, A412; conditions: 1 mM GSSG, 11 nM GR, 100 mM Tris pH 7.5
From the text: GSH-dependent DTNB reduction, A412 on Ac GR

[3] = substrate: NC(=O)C1=CN([C@@H]2O[C@H](COP(=O)(O)OP(=O)(O)OC[C@H]3O[C@@H](n4cnc5c(N)ncnc54)[C@H](OP(=O)(O)O)[C@@H]3O)[C@@H](O)[C@H]2O)C=CC1; test: Trx-1-dependent DTNB reduction, A412; conditions: 10 µg/ml Trx-1, 1 mM DTNB, 1 µg/ml (31 nM) TrxR-S, 100 mM potassium phosphate pH 6.8, 21-23 °C
From the text: Trx-1-dependent DTNB reduction, A412 on Ac TrxR-S

B1: MsrA (Acanthamoeba castellanii str. Neff) (protein)
chain: MTETATFGAGCFWGVEKFFRKEFGSALASTEVGYAGGDKSSPTYRQVCDGDTGHAEVVKLEFKKDAVDYASLVEFFFRIHDASTVDRQGNDVGTQYRSVIFYHTPEQKKVAEEVKDKVQKEHYPRTPIVTQIVPVGQYWSAEDYHQLYLEKNPSGYCNHRLRW
notes: full-length from cDNA, 163 aa, C-terminal 6xHis, pET-17b, E. coli BL21-AI, Ni-NTA
Question: B1 was tested. Which Km [1] did it give?
Answer: The Km was 2590 µM.

Question: What about the Vmax [1] of the same protein?
Answer: The Vmax was 500 nmol/min/mg.

Question: And the kcat [1]?
Answer: Its kcat is 0.155 s⁻¹.

Question: What about the kcat/Km [1] of the same protein?
Answer: The kcat/Km was 59 M⁻¹ s⁻¹.

B2: Ac GR (Acanthamoeba castellanii str. Neff) (protein)
chain: MESAKSTYDFDLFVLGAGSGGVRASRISAKAGARVAIAEESRVGGTCVIRGCIPKKLLVYASHFSGDFEDSRNFGWSVDVKGFDWKKLIDNKDKEIDRLNGIYKNLLAGSGVKLIEGRATLVDAHTVKVGDATYTAENILVAVGSWPWVPTIPGIEHAITSNEALELQELPKHAIIVGAGYIACEFATIFSGCGAKVTQIFRKPYVLTGFDNDVQLAVMDEGKKQGINFMPSTQVTAIEKTDAGYVCQLDNGQTVTGDVVMYATGRVPNSANLGLENAGVKIDQQGAIVVDEWSRTSVPSIYAVGDITNRINLTPVALAEGHALADTLYNNLPRTADHTNVPSAVFTSPPVSCVGYTETQARQVYGEIDVYVSKFTPLRHTLSKRDEKTFMKLIVDRKTDRVVGAHMVGADAPEIIQGVAIAVKCGATKKQFDSTVGLHPSAAEEFVTMRTKRE
notes: full-length from cDNA, 454 aa, C-terminal 6xHis, expressed in Giardia lamblia WB C6, Ni-NTA; eluate also contained G. lamblia proteins
Question: How did the Km [2] turn out when B2 was run?
Answer: Its Km is 9 µM.

B3: Ac TrxR-S (Acanthamoeba castellanii str. Neff) (protein)
chain: MESKVHRMVIVGSGPAGHTAAIYAARANLEPVMYEGWMAGGVASGGQLTTTTDVENFPGFPEGVGGIDLTDNMRKQSERFGTVIIPKTITKADLSSRPFKLWVEGEEEGEPAAQAHSLIIATGATARRLAVPGEETFWQKGVSACAVCDGALPLFRNKPLAVVGGGDSACEEASWLSKFGSKVYLIHRRDELRASKIMAQRVLSNPKIEMVWNSAVEEIYGEKLVTGLKIKNVSTGDITDLPVSGLFWAIGHVPNTQFLNGQVETDAEGYIKTTPGSTVTSVEGVFAAGDVQDKRYRQAITAAGTGCMAALDAEHWLSAHL
notes: full-length from cDNA, 321 aa, C-terminal 6xHis, pET-17b, E. coli BL21-AI, Ni-NTA
Question: Which results are given for B3?
Answer: Km [3]: 4 µM; Vmax [3]: 2.96 µmol/min/mg; kcat [3]: 1.7 s⁻¹
